# Test results published in IntAct's records for PubMed 15660133.
# B1: Protein phosphatase Slingshot homolog 1 (Homo sapiens), Q8WYL5 (parent)
# chain: MALVTLQRSPTPSAASSSASNSELEAGSEEDRKLNLSLSESFFMVKGAALFLQQGSSPQGQRSLQHPHKHAGDLPQHLQVMINLLRCEDRIKLAVRLESAWADRVRYMVVVYSSGRQDTEENILLGVDFSSKESKSCTIGMVLRLWSDTKIHLDGDGGFSVSTAGRMHIFKPVSVQAMWSALQVLHKACEVARRHNYFPGGVALIWATYYESCISSEQSCINEWNAMQDLESTRPDSPALFVDKPTEGERTERLIKAKLRSIMMSQDLENVTSKEIRNELEKQMNCNLKELKEFIDNEMLLILGQMDKPSLIFDHLYLGSEWNASNLEELQGSGVDYILNVTREIDNFFPGLFAYHNIRVYDEETTDLLAHWNEAYHFINKAKRNHSKCLVHCKMGVSRSASTVIAYAMKEFGWPLEKAYNYVKQKRSITRPNAGFMRQLSEYEGILDASKQRHNKLWRQQTDSSLQQPVDDPAGPGDFLPETPDGTPESQLPFLDDAAQPGLGPPLPCCFRRLSDPLLPSPEDETGSLVHLEDPEREALLEEAAPPAEVHRPARQPQQGSGLCEKDVKKKLEFGSPKGRSGSLLQVEETEREEGLGAGRWGQLPTQLDQNLLNSENLNNNSKRSCPNGMEDDAIFGILNKVKPSYKSCADCMYPTASGAPEASRERCEDPNAPAICTQPAFLPHITSSPVAHLASRSRVPEKPASGPTEPPPFLPPAGSRRADTSGPGAGAALEPPASLLEPSRETPKVLPKSLLLKNSHCDKNPPSTEVVIKEESSPKKDMKPAKDLRLLFSNESEKPTTNSYLMQHQESIIQLQKAGLVRKHTKELERLKSVPADPAPPSRDGPASRLEASIPEESQDPAALHELGPLVMPSQAGSDEKSEAAPASLEGGSLKSPPPFFYRLDHTSSFSKDFLKTICYTPTSSSMSSNLTRSSSSDSIHSVRGKPGLVKQRTQEIETRLRLAGLTVSSPLKRSHSLAKLGSLTFSTEDLSSEADPSTVADSQDTTLSESSFLHEPQGTPRDPAATSKPSGKPAPENLKSPSWMSKS
# Variants of: B1
# Conditions: with limk1_human LIMK1, P53667
# limk1_human LIMK1, P53667, sequence (P53667 whole entry, looked up): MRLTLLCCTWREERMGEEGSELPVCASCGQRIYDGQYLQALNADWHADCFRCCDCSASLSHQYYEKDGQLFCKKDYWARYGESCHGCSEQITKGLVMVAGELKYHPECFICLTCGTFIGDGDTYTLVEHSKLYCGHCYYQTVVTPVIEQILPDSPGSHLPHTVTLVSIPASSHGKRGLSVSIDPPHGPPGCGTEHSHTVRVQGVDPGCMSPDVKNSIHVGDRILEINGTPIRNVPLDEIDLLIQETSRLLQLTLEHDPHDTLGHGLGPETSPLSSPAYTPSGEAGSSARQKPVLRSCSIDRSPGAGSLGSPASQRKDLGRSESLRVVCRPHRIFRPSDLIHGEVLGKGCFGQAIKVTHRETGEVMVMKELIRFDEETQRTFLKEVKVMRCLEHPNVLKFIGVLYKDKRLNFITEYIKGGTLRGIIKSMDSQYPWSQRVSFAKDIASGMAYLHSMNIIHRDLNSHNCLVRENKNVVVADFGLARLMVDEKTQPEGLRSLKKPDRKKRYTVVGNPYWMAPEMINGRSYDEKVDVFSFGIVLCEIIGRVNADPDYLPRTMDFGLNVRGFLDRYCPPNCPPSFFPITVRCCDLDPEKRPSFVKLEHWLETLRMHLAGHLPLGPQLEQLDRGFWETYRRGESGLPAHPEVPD
row,Variant,effect of a mutation on the interaction
1,C393S,disrupting interaction
